Experimental data published in US20260125457A1 (Janssen / Centocor, published 2026).

T1: wild-type calreticulin (CALRwt) expressed with MPL in engineered cancer cells (UniProt P27797 18-417, limits assumed)
T1 construct: whole, on cells; also called OCI-M2 MPL CALRwt
T1 sequence (looked up): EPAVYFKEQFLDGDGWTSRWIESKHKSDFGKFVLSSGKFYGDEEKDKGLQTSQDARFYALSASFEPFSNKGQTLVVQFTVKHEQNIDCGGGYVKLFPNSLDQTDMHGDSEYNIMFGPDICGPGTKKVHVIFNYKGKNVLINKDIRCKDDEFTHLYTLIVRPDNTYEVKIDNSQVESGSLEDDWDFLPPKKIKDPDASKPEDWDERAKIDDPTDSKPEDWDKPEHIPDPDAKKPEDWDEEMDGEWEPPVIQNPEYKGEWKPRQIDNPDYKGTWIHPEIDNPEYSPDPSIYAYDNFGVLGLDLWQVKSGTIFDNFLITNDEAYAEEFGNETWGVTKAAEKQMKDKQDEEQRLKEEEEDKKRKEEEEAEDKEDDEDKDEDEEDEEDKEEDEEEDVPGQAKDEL

T2: CALRdel52 (mutant calreticulin, 52 base pair deletion, Type 1) expressed with MPL on engineered cancer cells (UniProt P27797 18-417)
T2 construct: whole, on cells; On the cell surface in complex with MPL; also called OCI-M2 MPL CALRdel52
T2 sequence (looked up): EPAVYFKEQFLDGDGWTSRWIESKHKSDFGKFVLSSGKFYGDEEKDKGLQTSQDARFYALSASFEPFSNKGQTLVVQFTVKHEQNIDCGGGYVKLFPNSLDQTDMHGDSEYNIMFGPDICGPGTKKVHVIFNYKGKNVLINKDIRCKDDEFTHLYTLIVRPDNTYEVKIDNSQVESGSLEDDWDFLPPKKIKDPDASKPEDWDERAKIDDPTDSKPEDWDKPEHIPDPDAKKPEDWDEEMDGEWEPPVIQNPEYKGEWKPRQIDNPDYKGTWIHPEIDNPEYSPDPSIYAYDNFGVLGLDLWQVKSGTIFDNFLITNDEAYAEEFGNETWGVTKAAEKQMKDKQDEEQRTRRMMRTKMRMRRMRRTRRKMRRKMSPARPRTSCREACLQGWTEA

T3: CALRins5 (mutant calreticulin, 5 base pair insertion, Type 2) expressed with MPL on engineered cancer cells (UniProt P27797 18-417)
T3 construct: whole, on cells; On the cell surface in complex with MPL; also called OCI-M2 MPL CALRins5
T3 sequence (looked up): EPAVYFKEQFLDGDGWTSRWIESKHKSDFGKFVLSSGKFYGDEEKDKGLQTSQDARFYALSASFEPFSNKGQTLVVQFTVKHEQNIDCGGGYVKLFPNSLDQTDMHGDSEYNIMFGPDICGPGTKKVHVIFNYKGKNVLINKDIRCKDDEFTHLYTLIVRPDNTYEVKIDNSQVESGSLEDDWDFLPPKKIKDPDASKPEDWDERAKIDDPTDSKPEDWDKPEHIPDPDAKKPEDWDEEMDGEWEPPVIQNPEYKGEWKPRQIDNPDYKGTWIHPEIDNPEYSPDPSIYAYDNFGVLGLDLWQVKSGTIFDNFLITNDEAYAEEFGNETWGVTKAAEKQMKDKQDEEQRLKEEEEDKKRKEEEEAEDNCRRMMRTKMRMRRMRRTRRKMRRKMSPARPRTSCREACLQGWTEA


Experiments:
[1] = target: T1, wild-type calreticulin (CALRwt) …; experiment: flow cytometry, ELF-153 and OCI-M2 MPL CALRwt cells
[2] = target: T4, CD3 on primary human pan T cells (human, UniProt P07766 23-207); experiment: flow cytometry on pan CD3 T cells, 1 h at 37 C, AF647 secondary antibody, Geometric Mean
T4 construct: whole, on cells; also called CD3e; CD3ε
T4 sequence (P07766 23-207): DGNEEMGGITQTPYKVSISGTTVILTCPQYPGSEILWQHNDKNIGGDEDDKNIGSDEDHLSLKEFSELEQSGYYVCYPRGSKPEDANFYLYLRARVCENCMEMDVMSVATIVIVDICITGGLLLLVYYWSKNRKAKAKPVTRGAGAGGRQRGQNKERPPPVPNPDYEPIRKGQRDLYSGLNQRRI
Experimental: FIG. 22 depicts binding of different CALRmutxCD3 bispecific antibodies to pan CD3 T cells. Flow cytometry was used to evaluate CALRmutxCD3 binding to pan CD3 T cells in vitro, by 1 hour 37° C. incubation, with subsequent incubation with secondary AF647-labeled antibody. Geometric mean fluorescence intensity of AF647 was measured to determine antibody binding.
Flow cytometry was used to evaluate the CD3 arm binding of CALRmutxCD3 antibodies listed in Table 21 to CD3+ pan T cells from healthy human donor. CALRmutxCD3 were tested after 1 hour 37° C. incubation with pan T cells.

[3] = target: T2, CALRdel52 (mutant calreticulin, 52 base …); experiment: flow cytometry on OCI-M2 MPL CALRdel52 cells, 1 h at 37 C, AF647 secondary antibody, Geometric Mean
Experimental: FIGS. 21A-21F depict binding of different CALRmutxCD3 bispecific antibodies to CALRmut-negative or CALRmut-positive cells. Flow cytometry was used to evaluate CALRmutxCD3 binding to CALRmut-negative and CALRmut-positive cancer cells in vitro. CALRmutxCD3 antibodies were tested on a panel of cell lines, engineered to express MPL and CALRmut, after 1 hour 37° C. incubation, with subsequent incubation with secondary AF647-labeled antibody. Geometric mean fluorescence intensity of AF647 was measured to determine antibody binding.

[4] = target: T1, wild-type calreticulin (CALRwt) …; experiment: flow cytometry, OCI-M2 and ELF-153 MPL CALRwt cells
[5] = target: T3, CALRins5 (mutant calreticulin, 5 base …); experiment: flow cytometry, OCI-M2 and ELF-153 MPL CALRins5 cells
[6] = target: T2, CALRdel52 (mutant calreticulin, 52 base …); experiment: flow cytometry, OCI-M2 and ELF-153 MPL CALRdel52 cells

Row | binding result [1] | EC50 (read off the curve) [2] [nM] | EC50 (read off the curve) [3] [nM] | binding result [4] | binding result [5] | binding result [6] | Binder
1 | no binding | ~5 | ~2 |  |  |  | C3CRB127 CALRmut x CD3 bispecific antibody (bispecific antibody, human IgG1, kappa, L234A L235A, Chain A heavy: CALRB1114 Fab heavy part, CD3 spFv (HL), Fc; Chain B heavy: CALRB1114) heavy 1: QVQLVQSGAEVKKPGASVKVSCKASGFSLSSYAMSWVRQAPGQGLEWMGVIDSGGTTYYAQKFQGRVTMTRDTSTSTVYMELSSLRSEDTAVYYCARESYAGYDYYGHPIPYGMEPWGQGTLVTVSSASTKGPSVFPLAPSSKSTSGGTAALGCLVKDYFPEPVTVSWNSGALTSGVHTFPAVLQSSGLYSLSSVVTVPSSSLGTQTYICNVNHKPSNTKVDKKVEPKSCGGGGSGGGGSEVQLVESGGGLVKPGGSLRLSCAASGFTFSRYNMNWVRQAPGCGLEWVSSISTSSNYIYYADSVKGRFTFSRDNAKNSLDLQMSGLRAEDTAIYYCTRGWGPFDYWGQGTLVTVSSGGGSGGSGGCPPCGGSGGDIQMTQSPSSLSASVGDRVTITCRARQSIGTAIHWYQQKPGKAPKLLIKYASESISGVPSRFSGSGSGTDFTLTISSLQPEDFATYYCQQSGSWPYTFGCGTKLEIKEPKSSDKTHTCPPCPAPEAAGGPSVFLFPPKPKDTLMISRTPEVTCVVVSVSHEDPEVKFNWYVDGVEVHNAKTKPREEQYNSTYRVVSVLTVLHQDWLNGKEYKCKVSNKALPAPIEKTISKAKGQPREPQVYTLPPSREEMTKNQVSLWCLVKGFYPSDIAVEWESNGQPENNYKTTPPVLDSDGSFFLYSKLTVDKSRWQQGNVFSCSVMHEALHNHYTQKSLSLSPGK heavy 2: QVQLVQSGAEVKKPGASVKVSCKASGFSLSSYAMSWVRQAPGQGLEWMGVIDSGGTTYYAQKFQGRVTMTRDTSTSTVYMELSSLRSEDTAVYYCARESYAGYDYYGHPIPYGMEPWGQGTLVTVSSASTKGPSVFPLAPSSKSTSGGTAALGCLVKDYFPEPVTVSWNSGALTSGVHTFPAVLQSSGLYSLSSVVTVPSSSLGTQTYICNVNHKPSNTKVDKKVEPKSCDKTHTCPPCPAPEAAGGPSVFLFPPKPKDTLMISRTPEVTCVVVSVSHEDPEVKFNWYVDGVEVHNAKTKPREEQYNSTYRVVSVLTVLHQDWLNGKEYKCKVSNKALPAPIEKTISKAKGQPREPQVYTLPPSREEMTKNQVSLSCAVKGFYPSDIAVEWESNGQPENNYKTTPPVLDSDGSFFLVSKLTVDKSRWQQGNVFSCSVMHEALHNRFTQKSLSLSPGK light: DIQMTQSPSTLSASVGDRVTITCQASQSLYNNKNLAWYQQKPGKAPKLLIYYASALASGVPSRFSGSGSGTEFTLTISSLQPDDFATYYCQGEFNCNSADCNSFGGGTKVEIKRTVAAPSVFIFPPSDEQLKSGTASVVCLLNNFYPREAKVQWKVDNALQSGNSQESVTEQDSKDSTYSLSSTLTLSKADYEKHKVYACEVTHQGLSSPVTKSFNRGEC
2 |  |  |  | no binding | binds | binds | C3CRB136 CALRmut x CD3 bispecific antibody (bispecific antibody, human IgG1, kappa, L234A L235A, Chain B heavy: two CALRB1114 Fab heavy parts in tandem, Fc) scFv: DIQMTQSPSSLSASVGDRVTITCRARQSIGTAIHWYQQKPGCAPKLLIKYASESISGVPSRFSGSGSGTDFTLTISSLQPEDFATYYCQQSGSWPYTFGQGTKLEIKGGGSGGSGGCPPCGGSGGEVQLVESGGGLVKPGGSLRLSCAASGFTFSRYNMNWVRQAPGKGLEWVSSISTSSNYIYYADSVKGRFTFSRDNAKNSLDLQMSGLRAEDTAIYYCTRGWGPFDYWGCGTLVTVSSEPKSSDKTHTCPPCPAPEAAGGPSVFLFPPKPKDTLMISRTPEVTCVVVSVSHEDPEVKFNWYVDGVEVHNAKTKPREEQYNSTYRVVSVLTVLHQDWLNGKEYKCKVSNKALPAPIEKTISKAKGQPREPQVYTLPPSREEMTKNQVSLWCLVKGFYPSDIAVEWESNGQPENNYKTTPPVLDSDGSFFLYSKLTVDKSRWQQGNVFSCSVMHEALHNHYTQKSLSLSPGK heavy: QVQLVQSGAEVKKPGASVKVSCKASGFSLSSYAMSWVRQAPGQGLEWMGVIDSGGTTYYAQKFQGRVTMTRDTSTSTVYMELSSLRSEDTAVYYCARESYAGYDYYGHPIPYGMEPWGQGTLVTVSSASTKGPSVFPLAPSSKSTSGGTAALGCLVKDYFPEPVTVSWNSGALTSGVHTFPAVLQSSGLYSLSSVVTVPSSSLGTQTYICNVNHKPSNTKVDKKVEPKSCGGGGSGGGGSQVQLVQSGAEVKKPGASVKVSCKASGFSLSSYAMSWVRQAPGQGLEWMGVIDSGGTTYYAQKFQGRVTMTRDTSTSTVYMELSSLRSEDTAVYYCARESYAGYDYYGHPIPYGMEPWGQGTLVTVSSASTKGPSVFPLAPSSKSTSGGTAALGCLVKDYFPEPVTVSWNSGALTSGVHTFPAVLQSSGLYSLSSVVTVPSSSLGTQTYICNVNHKPSNTKVDKKVEPKSCDKTHTCPPCPAPEAAGGPSVFLFPPKPKDTLMISRTPEVTCVVVSVSHEDPEVKFNWYVDGVEVHNAKTKPREEQYNSTYRVVSVLTVLHQDWLNGKEYKCKVSNKALPAPIEKTISKAKGQPREPQVYTLPPSREEMTKNQVSLSCAVKGFYPSDIAVEWESNGQPENNYKTTPPVLDSDGSFFLVSKLTVDKSRWQQGNVFSCSVMHEALHNRFTQKSLSLSPGK light: DIQMTQSPSTLSASVGDRVTITCQASQSLYNNKNLAWYQQKPGKAPKLLIYYASALASGVPSRFSGSGSGTEFTLTISSLQPDDFATYYCQGEFNCNSADCNSFGGGTKVEIKRTVAAPSVFIFPPSDEQLKSGTASVVCLLNNFYPREAKVQWKVDNALQSGNSQESVTEQDSKDSTYSLSSTLTLSKADYEKHKVYACEVTHQGLSSPVTKSFNRGEC
